Experiment [1] has as its target peptide P2. The experiment in a line: Apparent KD of lead quencher dyes with peptide P2 (quenching of pyrene fluorescence). In kind it is binding. To be noted: 5 μM pyrene-labeled P2 peptide, dye 0.5-500 μM, 100 mM Tris HCl pH 75, inner filter corrected. The method, then:
KD values were acquired for the set of the ten lead quenchers with peptide P2, in order to obtain a target range for the quencher:peptide ratios to be employed in the subsequent assays (vide infra). These apparent KD values were determined using the quenching of pyrene fluorescence as a barometer of peptide/quencher complex stability. […] An inner filter effect (at high dye concentrations) was corrected as previously described^8.
Acquisition of Apparent KD Values for Lead Quencher Dyes with Peptide P2 (FIG. 2).

Experiment [2] concerns the target peptide P5. The experiment in a line: Apparent KD of lead quencher/peptide pair, Rose Bengal with peptide P5. In kind it is binding.
For experiment [3], the target named is phosphorylated P5 peptide AcDap(Pyr)RTGRRFS(PO3^2−)YP-amide. Nature of the experiment: Apparent KD of Rose Bengal with phosphorylated P5 peptide. Format: binding.
Experiment [4] has as its target T1, cAMP-dependent protein kinase (PKA) (Mus musculus, UniProt P05132). Nature of the experiment: Control: phosphorylation-induced change in fluorescence of pyrene-labeled peptides in the absence of quenching dye. In kind it is biochemical, murine. The arrangement: made in house. The note with it: 5 μM peptide, 10 nM PKA, 10 μM 14-3-3τ, 1 mM ATP. How it is done:
2 Identification of the lead pyrene-peptide/quencher pair. The eleven pyrene-substituted peptides (P1-P11 at 5 μM) were incubated with a 5-, 10-, 25-, and 50-fold molar excess of each of the ten lead quenchers in the presence of PKA, ATP, and the phospho-Ser binding domain 14-3-3τ. Several control experiments were performed, including conducting the assay in the absence of quenching agent. Under the latter conditions, only small enhancements in fluorescence (0-64%) were observed (Supporting Information). […] Consequently, the background was subtracted from all readings to establish a baseline upon which changes in fluorescence intensity could be quantified (Supporting Information).
Screening of Lead Quenching Dyes 1-10 with […]. […] The concentrations per well were: 10 nM PKA, 5 μM peptide, 10 μM 14-3-3τ, 1 mM ATP, 5 mM MgCl2, 2 mM DTT, and 25 μM, 50 μM, […] each of 10 different lead dyes in 50 mM Tris at pH 7.5 buffer. The HTS 7000 Bio Assay Reader was set in kinetic mode to monitor the progress of reaction (340 nm excitation filter, […] emission filter, 100 μs and 5 flashes).

Experiment [5] addresses T1, cAMP-dependent protein kinase (PKA). The experiment in a line: PKA inhibitor IC50, Deep Quench method (Ponceau S/peptide P2, 14-3-3τ). Further details: made in house. The note with it: [ATP]=1 mM, 1 μM P2, 60 μM Ponceau S, 10 nM PKA. Format: biochemical, murine. The method, then:
This step was used to adjust for inter-assay variability and to verify that no significant drop in enzyme activity occurs over the course of the determinations. Subsequently, inhibitor was added at different concentrations. […] Fractional velocities (v/v0) were plotted against inhibitor concentration [I] and fit using the Sigma Plot version 8.02 software's four-parameter logistic nonlinear regression analysis.

Experiment [6] shares this target. Nature of the experiment: PKA inhibitor IC50, standard radioactive ATP method. Format: biochemical.
In experiment [7] the target is 14-3-3τ (phospho-Ser binding domain) (UniProt P27348). Nature of the experiment: cell-based or functional assay.
In experiment [8] the target is T2, 14-3-3τ (phospho-Ser binding domain) (UniProt P27348 1-245).
T2 sequence (looked up): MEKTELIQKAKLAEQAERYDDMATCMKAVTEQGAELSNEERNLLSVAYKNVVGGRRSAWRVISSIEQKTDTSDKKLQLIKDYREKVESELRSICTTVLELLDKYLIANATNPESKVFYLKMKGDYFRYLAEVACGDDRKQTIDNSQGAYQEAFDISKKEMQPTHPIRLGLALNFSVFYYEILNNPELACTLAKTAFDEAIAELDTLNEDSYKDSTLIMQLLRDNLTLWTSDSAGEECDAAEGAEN
Nature of the experiment: cell-based or functional assay.

Non-standard residues stand in square brackets, D forms with d. Primed or numbered codes have the meaning given here. No end group written: not given here. *: point of attachment. Acetyl(1-pyrenyl) = O=C(Cc1ccc2ccc3cccc4ccc1c2c34)*; Aoc′ = aminooctanoic acid linker; pS = N[C@@H](COP(=O)(O)O)C(=O)O; Abu = CC[C@H](N)C(=O)O; AEEA = NCCOCCOCC(=O)O; Ava = NCCCCC(=O)O; βAla = NCCC(=O)O

In the case of `Cc1cc(-c2ccc(/N=N/c3ccc4c(S(=O)(=O)O)cc(S(=O)(=O)O)c(N)c4c3O)c(C)c2)ccc1/N=N/c1ccc2c(S(=O)(=O)O)cc(S(=O)(=O)O)c(N)c2c1O` [Peptide D3, Evans Blue], in experiment [1], the Kd stood at 2.8 ± 0.8 µM.

`O=[N+]([O-])c1ccc2c(N=Nc3ccc4ccccc4c3O)c(O)cc(S(=O)(=O)O)c2c1` [Peptide D18, Eriochrome Black T]: the Kd in experiment [1] came out at 14.3 ± 3.3 µM.

Consider `Nc1ccc(N=Nc2ccc(-c3ccc(N=Nc4c(S(=O)(=O)O)cc5cc(S(=O)(=O)O)c(N=Nc6ccccc6)c(O)c5c4N)cc3)cc2)c(N)c1` [Peptide D34, Chlorazol Black E], for which, in experiment [1], the Kd came to 7.7 ± 1.5 µM.

For the molecule `O=S(=O)(O)c1ccc(/N=N/c2ccc(/N=N/c3c(O)c(S(=O)(=O)O)cc4cc(S(=O)(=O)O)ccc34)c(S(=O)(=O)O)c2)cc1` [Peptide D42, Ponceau S], the Kd in experiment [1] turned out to be 11.2 ± 2.7 µM.

In the case of `O=C(O)c1c(Cl)c(Cl)c(Cl)c(Cl)c1-c1c2cc(I)c(=O)c(I)c-2oc2c(I)c(O)c(I)cc12` [Peptide D43, Rose Bengal], the Kd worked out at 400 ± 30 nM in experiment [2] (Rose Bengal with unphosphorylated AcDap(Pyr)RTGRRFSYP-amide (P5)), 400 ± 30 nM in experiment [2] (Rose Bengal with unphosphorylated peptide P5), 210 ± 40 nM in experiment [3] and 7.5 ± 1.6 µM in experiment [1].

In the case of `O=C(O)c1nn(-c2ccc(S(=O)(=O)O)cc2)c(O)c1N=Nc1ccc(S(=O)(=O)O)cc1` [Peptide D47, Tartrazine], the Kd in experiment [1] worked out at 15 ± 2.1 µM.

Take `Cc1cc(-c2ccc(/N=N/c3c(S(=O)(=O)O)cc4cc(S(=O)(=O)O)cc(N)c4c3O)c(C)c2)ccc1/N=N/c1c(S(=O)(=O)O)cc2cc(S(=O)(=O)O)cc(N)c2c1O` [Peptide D48, Trypan Blue]: the Kd in experiment [1] amounted to 11.9 ± 3.6 µM.

Consider “Ac-Gly-Arg-Dap(Pyr)-Gly-Arg-Arg-Phe-Ser-Tyr-Pro-amide [Peptide P4]”, for which the “% Fluorescence Enhancement” value in experiment [4] amounted to 40%.

Consider “Ac-Gly-Arg-Thr-Dap(Pyr)-Arg-Arg-Phe-Ser-Tyr-Pro-amide [Peptide P3]”, for which the “% Fluorescence Enhancement” value in experiment [4] stood at 19%.

On to “Ac-Gly-Arg-Thr-Gly-Arg-Arg-Phe-Ser-Dap(Pyr)-Pro-amide [Peptide P1]”, for which, in experiment [4], the “% Fluorescence Enhancement” value was found to be 0%.

For “GRTGRRNAI-NH2 (C-terminus assumed) [PKI 14-22]”, the results for the IC50 in experiment [5] and in experiment [6] were 1100 ± 100 nM and 1600 ± 200 nM, respectively.

Regarding “Pyr-Abu-Gly-Arg-Thr-Gly-Arg-Arg-Phe-Ser-Tyr-Pro-amide ({Acetyl(1-pyrenyl)}-[Abu]GRTGRRFSYP-NH2; SMILES CC[C@H](NC(=O)Cc1ccc2ccc3cccc4ccc1c2c34)C(=O)NCC(=O)N[C@@H](CCCNC(=N)N)C(=O)N[C@H](C(=O)NCC(=O)N[C@@H](CCCNC(=N)N)C(=O)N[C@@H](CCCNC(=N)N)C(=O)N[C@@H](Cc1ccccc1)C(=O)N[C@@H](CO)C(=O)N[C@@H](Cc1ccc(O)cc1)C(=O)N1CCC[C@H]1C(N)=O)[C@@H](C)O) [Peptide P7]”, the “% Fluorescence Enhancement” value in experiment [4] is recorded as 47%.

Consider “Pyr-Aoc-Gly-Arg-Thr-Gly-Arg-Arg-Phe-Ser-Tyr-Pro-amide ({Acetyl(1-pyrenyl)-Aoc′}-GRTGRRFSYP-NH2) [Peptide P10]”, for which the “% Fluorescence Enhancement” value in experiment [4] is listed as 39%.

For the molecule “Pyr-Ava-Gly-Arg-Thr-Gly-Arg-Arg-Phe-Ser-Tyr-Pro-amide ({Acetyl(1-pyrenyl)-Ava}-GRTGRRFSYP-NH2; SMILES C[C@@H](O)[C@H](NC(=O)[C@H](CCCNC(=N)N)NC(=O)CNC(=O)CCCCNC(=O)Cc1ccc2ccc3cccc4ccc1c2c34)C(=O)NCC(=O)N[C@@H](CCCNC(=N)N)C(=O)N[C@@H](CCCNC(=N)N)C(=O)N[C@@H](Cc1ccccc1)C(=O)N[C@@H](CO)C(=O)N[C@@H](Cc1ccc(O)cc1)C(=O)N1CCC[C@H]1C(N)=O) [Peptide P8]”, the “% Fluorescence Enhancement” value in experiment [4] was found to be 31%.

“Pyr-BAla-Gly-Arg-Thr-Gly-Arg-Arg-Phe-Ser-Tyr-Pro-amide ({Acetyl(1-pyrenyl)}-[βAla]GRTGRRFSYP-NH2; SMILES C[C@@H](O)[C@H](NC(=O)[C@H](CCCNC(=N)N)NC(=O)CNC(=O)CCNC(=O)Cc1ccc2ccc3cccc4ccc1c2c34)C(=O)NCC(=O)N[C@@H](CCCNC(=N)N)C(=O)N[C@@H](CCCNC(=N)N)C(=O)N[C@@H](Cc1ccccc1)C(=O)N[C@@H](CO)C(=O)N[C@@H](Cc1ccc(O)cc1)C(=O)N1CCC[C@H]1C(N)=O) [Peptide P6]”: the “% Fluorescence Enhancement” value in experiment [4] is on record as 49%.

With “Pyr-miniPEG™-Gly-Arg-Thr-Gly-Arg-Arg-Phe-Ser-Tyr-Pro-amide ({Acetyl(1-pyrenyl)-AEEA}-GRTGRRFSYP-NH2; SMILES C[C@@H](O)[C@H](NC(=O)[C@H](CCCNC(=N)N)NC(=O)CNC(=O)COCCOCCNC(=O)Cc1ccc2ccc3cccc4ccc1c2c34)C(=O)NCC(=O)N[C@@H](CCCNC(=N)N)C(=O)N[C@@H](CCCNC(=N)N)C(=O)N[C@@H](Cc1ccccc1)C(=O)N[C@@H](CO)C(=O)N[C@@H](Cc1ccc(O)cc1)C(=O)N1CCC[C@H]1C(N)=O) [Peptide P11]”, the “% Fluorescence Enhancement” value in experiment [4] was 38%.

With Reactive Blue 2 [Peptide D6], the Kd in experiment [1] was found to be 19.6 ± 3.4 µM.

With “phosphorylated peptide P2, Ac-GRTGRRDap(Pyr)SYP-amide after phosphorylation of Ser by PKA”, in experiment [7], the % Fluorescence Enhancement (phosphorylation-induced, PKA + ATP + 14-3-3τ, no quenching dye) is 51%; the Fluorescence Change (phosphorylation-induced fold-change), P2/Ponceau S (1:50), plate reader - bottom read came to 7 fold; the Fluorescence Change (phosphorylation-induced fold-change), P2/Ponceau S (1:50), plate reader - top read stood at 15 fold; the Fluorescence Change (phosphorylation-induced fold-change), P2/Ponceau S (1:50), spectrofluorimeter was determined as 21 fold.

In the case of “phosphorylated peptide P3, Ac-GRTDap(Pyr)RRFSYP-amide after phosphorylation of Ser by PKA”, the % Fluorescence Enhancement (phosphorylation-induced, PKA + ATP + 14-3-3τ, no quenching dye) in experiment [7] came out at 19%.

For “phosphorylated peptide P4, Ac-GRDap(Pyr)GRRFSYP-amide after phosphorylation of Ser by PKA”, the % Fluorescence Enhancement (phosphorylation-induced, PKA + ATP + 14-3-3τ, no quenching dye) in experiment [7] stood at 40%.

“phosphorylated peptide P5, AcDap(Pyr)RTGRRFS(PO3^2-)YP-amide”: in experiment [7], the % Fluorescence Enhancement (phosphorylation-induced, PKA + ATP + 14-3-3τ, no quenching dye) amounted to 64%; the Fluorescence Change (phosphorylation-induced fold-change), P5/Rose Bengal (1:5), plate reader - bottom read came out at 8 fold; the Fluorescence Change (phosphorylation-induced fold-change), P5/Rose Bengal (1:5), plate reader - top read was determined as 30 fold; the Fluorescence Change (phosphorylation-induced fold-change), P5/Rose Bengal (1:5), spectrofluorimeter worked out at 64 fold.

B1: coumarin-peptide P12 after phosphorylation (peptide)
peptide: GRTGRRF[pS]YP
modifications: also: 7-diethylaminocoumarin-3-carboxylic acid label, site not given here
In the case of B1, in experiment [8], the “enhancement in fluorescence (16 µM P12, 10 µM 14-3-3, 30 µM Acid Green 27)” value amounted to 225 fold.

For orientation: IC50 means the concentration that gives 50% inhibition.
